Data set [1] relates to protease according to SEQ ID NO: 3. Description: Relative proteolytic activity with reversible inhibitor in liquid surfactant preparation (Example 1). The class given is biochemical. As to conditions: 50% conc. surfactant preparation, 0.92 mM AAPF, 25° C., pH 8.6, relative to same protease without inhibitor; for relative activity, 3-HPBA: 3-HPBA in amount inhibiting starting enzyme by 20-40%; for relative activity, 4-FPBA: 4-FPBA in amount inhibiting starting enzyme by 20-40%; for relative activity, Boric acid: boric acid in amount inhibiting starting enzyme by 20-40%; for relative activity, BMA: benzylmalonic acid in amount inhibiting starting enzyme by 20-40%. The source says:
The relative activity to be determined in process step c) of the hydrolytic enzyme modified in process step b) is given by [measured activity of the hydrolytic enzyme modified in process step b) in the presence of the component that stabilizes the hydrolytic enzyme] divided by [measured activity of the hydrolytic enzyme modified in process step b) in the absence of the component that stabilizes the hydrolytic enzyme] multiplied by 100.
The relative activity of the starting enzyme to be determined in process step c) is given by [measured activity of the starting enzyme in the presence of the component that stabilizes the hydrolytic enzyme] divided by [measured activity of the starting enzyme in the absence of the component that stabilizes the hydrolytic enzyme] multiplied by 100.
The nucleic acid sequence of the hydrolytic enzyme present on a plasmid was modified individually or in combination as indicated in Tables 1 and 2 using site directed mutagenesis by means of specific, adapted primers using a Phusion Hot Start Polymerase at the positions S166, A187, F189 or Q191 in the counting according to SEQ ID NO: 1, and the resulting variants were transformed into a suitable host. Active clones were selected by means of a protease-sensitive medium and the DNA sequence was sequenced after isolation of the plasmid for identification purposes. The modified proteases were expressed in the Bacillus host and prepared for the activity determination.
The activity was determined in a liquid preparation that was constituted as follows (all data in wt %): 0.3-0.5% xanthan, 0.2-0.4% defoamer, 6-7% glycerin, 0.3-0.5% ethanol, 4-7% FAEOS (fatty alcohol ether sulfate), 24-28% non-ionic surfactants, 1-2% sodium citrate (dihydrate), 2-4% soda, 14-16% cocoanut fatty acids, 0.5% HEDP (1-hydroxyethane-(1,1-diphosphonic acid)), 0-0.4% PVP (polyvinyl pyrrolidone) 0-0.5% optical brightener, 0-0.001% % colorant, the remainder being demineralized water.
To a 50% conc. liquid preparation of the liquid surfactant preparation were added 0.92 mM AAPF. The reversible inhibitor to be tested was also comprised in the required amount to inhibit the starting enzyme by 20-40%. 20 μl of the respective protease (starting enzyme as well as modified protease variants) were added and the proteolytic activity determined from the release of the chromophore para-nitroaniline (pNA) from the substrate suc-L-Ala-L-Ala-L-Pro-L-Phe-p-nitroanilide (suc-AAPF-pNA). The protease cleaves the substrate and releases pNA. The released pNA causes the extinction at 410 nm to increase; the change in extinction as a function of time is a measure of the enzymatic activity (see Del Mar et al., 1979). The measurement was carried out at a temperature of 25° C., at pH 8.6 and a wavelength of 410 nm.
The measured activity was compared with the activity of a reference formulation of the same protease sample without inhibitor and the respective relative activities of the modified proteases and the starting enzyme were determined. […] The results are presented in the following Tables 1 and 2 (the relative activities are each given).

Data set [2] has the same test system. Description: Inhibition measurements in the biochemical test (Example 2). The note with it: 0.1 M Tris/HCl pH 8.6 with Brij35, suc-AAPF-pNA. The procedure: The variants S166V and S166G/Q191R as well as the starting enzyme according to SEQ ID NO: 3 were expressed in a suitable expression system, further purified by means of ion exchange chromatography and prepared for the activity determinations in 0.1 M Tris/HCl buffer pH 8.6, comprising Brij35. To the formulations were added increased amounts of the reversible inhibitor 3-HPBA or BMA (see Tables 3 and 4) and the proteolytic residual activity of the respective protease was determined from the release of the chromophore para-nitroaniline (pNA) from the substrate suc-L-Ala-L-Ala-L-Pro-L-Phe-p-nitroanilide (suc-AAPF-pNA) as described above.

B1: S166: protease according to SEQ ID NO: 3 used as the hydrolytic enzyme (starting enzyme) (protein, listed as Bacillus lentus)
chain: AQSVPWGISRVQAPAAHNRGLTGSGVKVAVLDTGISTHPDLNIRGGASFVPGEPSTQDGNGHGTHVAGTIAALNNSIGVLGVAPSAELYAVKVLGADGEGAISSIAQGLEWAGNNGMHVANLSLGSPSPSATLEQAVNSATSRGVLVVAASGNSGASSISYPARYANAMAVGATDQNNNRASFSQYGAGLDIVAPGVNVQSTYPGSTYASLNGTSMATPHVAGAAALVKQKNPSWSNVQIRNHLKNTATSLGSTNLYGSGLVNAEAATR
As for B1, in data set [1] (Table 1), the “relative activity, 3-HPBA” value is 83%. Further, the “relative activity, 4-FPBA” value in data set [1] (Table 1) was 75%. Also, the “relative activity, Boric acid” value is on record as 83% in data set [1] (Table 1) and 79% in data set [1] (Table 2). In data set [1] (Table 2), the “relative activity, BMA” value is on record as 81%. The “proteolytic residual activity, 3-HPBA” value in data set [2] (3-HPBA 0.05 mM) came to 93%; in data set [2] (3-HPBA 0.1 mM), 89%; in data set [2] (3-HPBA 0.5 mM) it was 81%; in data set [2] (3-HPBA 1 mM), 65%; in data set [2] (3-HPBA 1.5 mM) it was 56%. Moreover, the “proteolytic residual activity, BMA” value in data set [2] (BMA 0.05 Gew.-%) is given as 96%; in data set [2] (BMA 0.5 Gew.-%) it was 95%; in data set [2] (BMA 1.0 Gew.-%) it was 93%; in data set [2] (BMA 1.7 Gew.-%), 94%; in data set [2] (BMA 2.5 Gew.-%), 74%; in data set [2] (BMA 3.3 Gew.-%), 73%. Moreover, the “proteolytic residual activity, BMA” value was 78% in data set [2] (BMA 4.0 Gew.-%) and 64% in data set [2] (BMA 5.0 Gew.-%).

B2: S166V: protease of SEQ ID NO: 3 with amino acid substitution S166V in the count according to SEQ ID NO: 1 (protein, listed as Bacillus lentus)
chain: AQSVPWGISRVQAPAAHNRGLTGSGVKVAVLDTGISTHPDLNIRGGASFVPGEPSTQDGNGHGTHVAGTIAALNNSIGVLGVAPSAELYAVKVLGADGEGAISSIAQGLEWAGNNGMHVANLSLGSPSPSATLEQAVNSATSRGVLVVAASGNSGASSIVYPARYANAMAVGATDQNNNRASFSQYGAGLDIVAPGVNVQSTYPGSTYASLNGTSMATPHVAGAAALVKQKNPSWSNVQIRNHLKNTATSLGSTNLYGSGLVNAEAATR
As for B2, the “relative activity, 3-HPBA” value in data set [1] (Table 1) stood at 53%. Besides, the “relative activity, 4-FPBA” value in data set [1] (Table 1) turned out to be 71%. In addition, the “relative activity, Boric acid” value in data set [1] (Table 1) is recorded as 59%. In addition, the “proteolytic residual activity, 3-HPBA” value in data set [2] (3-HPBA 0.05 mM) amounted to 84%; in data set [2] (3-HPBA 0.1 mM), 87%; in data set [2] (3-HPBA 0.5 mM) it was 65%; in data set [2] (3-HPBA 1 mM), 51%; in data set [2] (3-HPBA 1.5 mM) it was 40%.

B3: S166G/Q191R: protease of SEQ ID NO: 3 with amino acid substitutions S166G and Q191R in the count according to SEQ ID NO: 1 (protein, listed as Bacillus lentus)
chain: AQSVPWGISRVQAPAAHNRGLTGSGVKVAVLDTGISTHPDLNIRGGASFVPGEPSTQDGNGHGTHVAGTIAALNNSIGVLGVAPSAELYAVKVLGADGEGAISSIAQGLEWAGNNGMHVANLSLGSPSPSATLEQAVNSATSRGVLVVAASGNSGASSIGYPARYANAMAVGATDQNNNRASFSRYGAGLDIVAPGVNVQSTYPGSTYASLNGTSMATPHVAGAAALVKQKNPSWSNVQIRNHLKNTATSLGSTNLYGSGLVNAEAATR
As to B3, in data set [1] (Table 2), the “relative activity, BMA” value turned out to be 35%. The “relative activity, Boric acid” value in data set [1] (Table 2) is 57%. The “proteolytic residual activity, BMA” value was determined as 88% in data set [2] (BMA 0.05 Gew.-%); 55% in data set [2] (BMA 0.5 Gew.-%); 42% in data set [2] (BMA 1.0 Gew.-%); 35% in data set [2] (BMA 1.7 Gew.-%); 38% in data set [2] (BMA 2.5 Gew.-%); 32% in data set [2] (BMA 3.3 Gew.-%). For the same molecule, the “proteolytic residual activity, BMA” value stood at 36% in data set [2] (BMA 4.0 Gew.-%) and 32% in data set [2] (BMA 5.0 Gew.-%).

(Values after patent publication US9695461B2, “Method for adapting a hydrolytic enzyme to a component that stabilizes the hydrolytic enzyme” (Henkel AG & Co. KGaA, priority 2011, dated 2017).)
